Test results reported in article PMC6087011, “The mechanism by which a distinguishing arabinofuranosidase can cope with internal di-substitutions in arabinoxylans” (Biotechnology for Biofuels, 2018).

What was measured:
[1] = tested on: O=[N+]([O-])c1ccc(O[C@@H]2O[C@@H](CO)[C@H](O)[C@H]2O)cc1; test: purified protein; settings: pH 5.5 McIlvaine buffer, 50 °C
[2] = target: XacAbf51, GH51 α-L-arabinofuranosidase from Xanthomonas axonopodis pv. citri (X. axonopodis pv. citri str. 306); test: […]; 20 °C; […], pH 7.5; […]
[3] = target: XacAbf51, GH51 α-L-arabinofuranosidase from Xanthomonas axonopodis pv. citri (X. axonopodis pv. citri str. 306); test: SAXS
[4] = target: XacAbf51, GH51 α-L-arabinofuranosidase from Xanthomonas axonopodis pv. citri (X. axonopodis pv. citri str. 306); test: AUC
[5] = substrate: O=[N+]([O-])c1ccc(O[C@@H]2O[C@@H](CO)[C@H](O)[C@H]2O)cc1; test: colorimetric p-nitrophenolate release, A400; type: biochemical, Thermobacillus xylanilyticus; settings: pH 5.5 McIlvaine buffer, 50 °C
Description: colorimetric p-nitrophenolate release, A400 on TxAbfD3

Molecule: XacAbf51 (Xanthomonas citri subsp. citri 306)
- Km [1]: 190 ± 10 µM
- kcat [1]: 56.4 ± 0.8 s⁻¹
- kcat/Km [1]: 300000 M⁻¹ s⁻¹

Molecule: XacAbf51, GH51 α-L-arabinofuranosidase from Xanthomonas axonopodis pv. citri (enzyme)
- stoichiometry N [2]: 3
- stoichiometry N [3]: 3
- stoichiometry N [4]: 3

B1: TxAbfD3 (Thermobacillus xylanilyticus) (protein)
chain: MNVASRVVVNADRVKGTINRNIYGHFSEHLGRCIYEGLWVGEDSPIPNTNGIRNDVLEALKQMKIPVLRWPGGCFADEYHWKDGVGPREKRKRMVNTHWGGVIENNHFGTHEFMMLCELLGCEPYISGNVGSGTVQEMSEWVEYITFDGESPMANWRRENGREKPWRIKYWGVGNENWGCGGNMRAEYYADLYRQFQTYLRNYGDNKLHKIACGANTADYHWTEVLMKQAAPFMHGLSLHYYTVPGPWEKKGPATGFTTDEWWVTLKKALFMDRLVTKHSAIMDVYDPDKRIDLIVDEWGTWYDVEPGTNPGFLYQQNSIRDALVAGATLHIFHRHCDRVRMANIAQLVNVLQSVILTEGERMLLTPTYHVFNMFKVHQDAELLDTWESVERTGPEGELPKVSVSASRAADGKIHISLCNLDFETGASVDIELRGLNGGVSATGTTLTSGRIDGHNTFDEPERVKPAPFRDFKLEGGHLNASLPPMSVTVLELTAG
- Km [5]: 520 ± 60 µM
- kcat [5]: 154 ± 4.2 s⁻¹
- kcat/Km [5]: 300000 M⁻¹ s⁻¹
